From patent US20020115167

Target: T1, Dishevelled (Dsh) protein, Drosophila, P51140
T1 chain: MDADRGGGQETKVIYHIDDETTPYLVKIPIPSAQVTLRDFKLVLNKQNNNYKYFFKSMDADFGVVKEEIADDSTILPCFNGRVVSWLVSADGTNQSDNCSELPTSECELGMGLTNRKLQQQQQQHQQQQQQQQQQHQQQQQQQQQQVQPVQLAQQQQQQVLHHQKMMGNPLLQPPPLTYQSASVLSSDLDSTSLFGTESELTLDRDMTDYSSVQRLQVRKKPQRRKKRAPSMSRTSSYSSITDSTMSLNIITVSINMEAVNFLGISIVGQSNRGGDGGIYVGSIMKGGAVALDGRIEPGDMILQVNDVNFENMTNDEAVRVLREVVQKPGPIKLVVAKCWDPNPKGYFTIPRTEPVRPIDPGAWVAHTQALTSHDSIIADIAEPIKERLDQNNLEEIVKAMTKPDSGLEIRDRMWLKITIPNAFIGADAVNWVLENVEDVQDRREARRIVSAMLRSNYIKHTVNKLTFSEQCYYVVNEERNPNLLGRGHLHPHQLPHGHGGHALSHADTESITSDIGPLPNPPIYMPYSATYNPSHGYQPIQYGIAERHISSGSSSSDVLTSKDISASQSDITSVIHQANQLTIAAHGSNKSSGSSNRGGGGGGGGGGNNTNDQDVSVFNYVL

B1: Drosophila PAR-1 (dPAR-1), the Dishevelled-associated kinase (protein)
chain: MSTAMRTTLQSVPEALPADSVSNGTASNVAAPAAPVSSATNAVPPLAAVSSTTATYATNSISTSSHSVKDQQQQQQQQQHDSANANIVSLPPTTTPVANTNTMMPIVTSSNSATSNSTAATPTPASGAAATGGVGSVSQGPATVSASAANTNHSHQHSHQHHHHVANNMTTDGARLSSNNSAVVASSAINHHHHHTPGSGVAPTVNKNVLSTHSAHPSAIKQRTSSAKGSPNMQMRSSAPMRWRATEEHIGKYKLIKTIGKGNFAKVKLAKHLPTGKEVAIKIIDKTQLNPGSLQKLFREVRIMKMLDHPNIVKLFQVIETEKTLYLIMEYASGGEVFDYLVLHGRMKEKEARVKFRQIVSAVQYCHQKRIIHRDLKAENLLLDSELNIKIADFGFSNEFTPGSKLDTFCGSPPYAAPELFQGKKYDGPEVDVWSLGVILYTLVSGSLPFDGSTLRELRERVLRGKYRIPFYMSTDCENLLRKFLVLNPAKRASLETIMGDKWMNMGFEEDELKPYIEPKADLADPKRIEALVAMGYNRSEIEASLSQVRYDDVFATYLLLGRKSTDPESDGSRSGSSLSLRNISGNDAGANAGSASVQSPTHRGVHRSISASSTKPSRRASSGAETLRVGPTNAAATVAAATGAVGAVNPSNNYNAAGSAADRASVGSNFKRQNTIDSATIKENTARLAAQNQRPASATQKMLTTADTTLNSPAKPRTATKYDPTNGNRTVSGTSGIIPRRSTTLYEKTSSTEKTNVIPAETKMASAVKSSRHFPRNVPSRSTFHSGQTRARNNTALEYSGTSGASGDSSHPGRMSFFSKLSSRFSKRPNQ
in-gel in vitro kinase assay: these bands phosphorylated the Dsh substrate impregnated in the gel
